The results in this text go back to patent US20190040368.

The data set has as its system recombinant human iduronate-2 sulfatase (rhIDS).

Dendroctonus ponderosa Lip2-DpFGE-His6-HDEL fusion construct, sequence (chain, as listed by the source): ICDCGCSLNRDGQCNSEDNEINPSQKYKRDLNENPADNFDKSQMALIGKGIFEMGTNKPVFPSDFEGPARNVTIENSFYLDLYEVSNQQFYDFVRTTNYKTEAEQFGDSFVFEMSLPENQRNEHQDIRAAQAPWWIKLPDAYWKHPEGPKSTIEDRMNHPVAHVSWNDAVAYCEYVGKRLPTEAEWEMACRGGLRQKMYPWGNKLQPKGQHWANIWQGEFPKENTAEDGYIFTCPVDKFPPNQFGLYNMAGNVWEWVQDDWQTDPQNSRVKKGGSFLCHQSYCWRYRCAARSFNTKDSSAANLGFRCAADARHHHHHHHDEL
recombinant human iduronate-2 sulfatase (rhIDS), sequence (chain, as listed by the source): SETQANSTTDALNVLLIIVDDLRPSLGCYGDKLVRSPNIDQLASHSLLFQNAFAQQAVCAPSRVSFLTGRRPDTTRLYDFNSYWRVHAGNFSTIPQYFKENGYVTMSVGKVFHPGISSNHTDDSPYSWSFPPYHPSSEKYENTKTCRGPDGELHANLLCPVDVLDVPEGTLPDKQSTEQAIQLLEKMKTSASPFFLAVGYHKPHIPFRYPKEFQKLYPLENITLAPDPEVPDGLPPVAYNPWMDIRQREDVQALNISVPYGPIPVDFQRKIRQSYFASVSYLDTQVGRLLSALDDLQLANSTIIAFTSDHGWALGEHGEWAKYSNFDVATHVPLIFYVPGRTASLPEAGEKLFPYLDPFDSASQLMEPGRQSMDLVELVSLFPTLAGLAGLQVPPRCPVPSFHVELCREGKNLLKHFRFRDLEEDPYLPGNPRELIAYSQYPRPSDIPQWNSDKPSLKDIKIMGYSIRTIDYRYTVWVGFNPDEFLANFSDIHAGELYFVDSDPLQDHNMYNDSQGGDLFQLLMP

Regarding “Dendroctonus ponderosa Lip2-DpFGE-His6-HDEL fusion construct”, the % activity of rhIDS; co-expression with DpFGE came to 5%.
